{
  "source": "patent US20120027677A1",
  "key": {"[1]": {"target": "PrP^C, nonpathogenic (cellular) form of the human prion protein (in normal human brain homogenate and human plasma) (human) (UniProt P04156)"}, "[2]": {"target": "PrP^C, nonpathogenic (cellular) form of the human prion protein (in normal human brain homogenate and human plasma) (human) (UniProt P04156)", "remark": "listed apart in the source"}},
  "data": [
    {"substance": "3F4 antibody", "values": [
      {"measurement": "ave (RLU), Nomal BH", "setting": "[1]", "result": 14.6, "unit": "RLU"}
    ]},
    {"substance": "mAb SAF32 (antibody)", "values": [
      {"measurement": "LU", "setting": "[2]", "result": 888, "unit": "LU"}
    ]}
  ]
}
